Legend:
GST-α-actinin R2 [1] = target: GST-α-actinin R2 (UniProt P05094); assay: pull-down; competition: 2 µg GST-α-actinin R2 on glutathione-sepharose, cross-linked with dimethyl pimelimidate; 1 ml of 250 nM His6-GluN1 cytoplasmic domain with increasing amounts of ICAM-5 cytoplasmic domain, RT 1 h; bound His6-GluN1 by western blotting, band intensities fitted to an exponential decay …
GST-α-actinin R1 = assay: ELISA; conditions: ICAM-5 cytoplasmic domains coated on plates and incubated with GST-α-actinin rod domains; values normalized to the level of BSA binding; parent: est. 0.10; read off a plot
GST-α-actinin R2 [2] = target: GST-α-actinin R2 (UniProt P05094); assay: ELISA; conditions: ICAM-5 cytoplasmic domains coated on plates and incubated with GST-α-actinin rod domains; values normalized to the level of BSA binding; parent: est. 0.22; read off a plot
GST-α-actinin R3 = assay: ELISA; conditions: ICAM-5 cytoplasmic domains coated on plates and incubated with GST-α-actinin rod domains; values normalized to the level of BSA binding; parent: est. 0.072; read off a plot
[3] = target: GST-α-actinin R1-R4 (the whole rod domain) (UniProt P05094); assay: ELISA; conditions: ICAM-5 cytoplasmic domains coated on plates and incubated with GST-α-actinin rod domains; values normalized to the level of BSA binding; parent: est. 0.28; read off a plot
GST-α-actinin R4 = GST-α-actinin R4 (UniProt P05094); assay: ELISA; conditions: ICAM-5 cytoplasmic domains coated on plates and incubated with GST-α-actinin rod domains; values normalized to the level of BSA binding; parent: est. 0.020; read off a plot

Chain of UniProt P05094 (P05094 387-510): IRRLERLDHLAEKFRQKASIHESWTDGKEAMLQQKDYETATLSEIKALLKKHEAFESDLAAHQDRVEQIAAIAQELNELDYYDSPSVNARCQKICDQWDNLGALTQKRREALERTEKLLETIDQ

| IC50 (GST-α-actinin R2 [1]) | response (GST-α-actinin R1) | response (GST-α-actinin R2 [2]) | response (GST-α-actinin R3) | response [3] | response (GST-α-actinin R4) | Substance |
| --- | --- | --- | --- | --- | --- | --- |
| 0.055 µM | – | – | – | – | – | ICAM-5 cytoplasmic domain (WT) (from UniProt Q9UMF0 857-924) (domain or fragment) |
| – | 0.035 A492 | 0.015 A492 | 0.02 A492 | 0.015 A492 | 0.022 A492 | ICAM-5 cytoplasmic domain (WT) (from UniProt Q9UMF0) K857A; K858A |

Source: paper PMC4365481
